Drawing on patent US20230071422A1 (BEIJING WISDOMAB BIOTECHNOLOGY, published 2023), this text covers Kd, koff and kon for one molecule.

In assay [1] the target is T1, CD123 on the surface of CD123-positive cells (KG-1a, MV-4-11) (human, UniProt P26951 19-378).
T1 construct: whole, on cells; Endogenous CD123 on KG-1a (human acute myeloid leukemia) and MV-4-11 (human acute monocytic leukemia) cells; also called cell surface CD123 antigen; CD123 on the surface of MV-4-11 cells
The assay can be described thus: flow cytometry on MV-4-11 cells, titration from 100 nM, goat anti-human IgG-FITC. The method, then:
MV-4-11 cells at the logarithmic phase of growth were used and resuspended to 2×10⁶ […] with PBS buffer containing 1% BSA after centrifugation. MV-4-11 cells were plated in a 96-well V-bottom plate at 100 μL/well, and the supernatant was removed after centrifugation. […] The antibodies were added to the wells containing cells and incubated at 4° C. for 1 hour. Then, the plate was washed three times with 200 μL PBS buffer. The goat anti-human IgG-FITC secondary antibody (ZF-0308, ZSGB-BIO) was added to the wells (100 μL/well), and incubated at 4° C. for 30 minutes in the dark. Then, the cells were washed three times with 200 μL of PBS buffer, and resuspended in 100 μL of PBS buffer to detect FITC channel by flow cytometer (ACEA, Novocyte).

For assay [2], the target named is T2, extracellular region of human CD3E with C-terminal His tag (hCD3E-his) (human (Homo sapiens), UniProt P07766 23-126).
T2 construct: Recombinant, expressed in HEK293 cells
T2 sequence (P07766 other isoform, or with tags, fused parts or gaps limits assumed): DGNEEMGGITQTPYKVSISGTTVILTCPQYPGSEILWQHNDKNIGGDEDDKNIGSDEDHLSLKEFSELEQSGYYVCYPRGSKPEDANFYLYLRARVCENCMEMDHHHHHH
The assay can be described thus: SPR, Biacore X100; antibody captured by anti-human IgG (Fc), hCD3E-his as analyte, 1:1 model. The method, then:
(§1) The chip surface was regenerated by injecting 3M MgCl₂ solution at 10 μL/min for 30 s. Association rates (Kₒₙ) and dissociation rates (Koff) were calculated from association and dissociation sensorgrams fitted by a 1:1 binding model using Biacore X100 evaluation software version 2.0.1. The dissociation equilibrium constant (KD) was calculated as the ratio Koff/Kₒₙ.

In assay [3] the target is T3, extracellular region of human CD123 subtype 1 with C-terminal His tag (hCD123-SP1-his) (human (Homo sapiens), UniProt P26951 19-305).
T3 construct: Recombinant, expressed in HEK293 cells
T3 sequence: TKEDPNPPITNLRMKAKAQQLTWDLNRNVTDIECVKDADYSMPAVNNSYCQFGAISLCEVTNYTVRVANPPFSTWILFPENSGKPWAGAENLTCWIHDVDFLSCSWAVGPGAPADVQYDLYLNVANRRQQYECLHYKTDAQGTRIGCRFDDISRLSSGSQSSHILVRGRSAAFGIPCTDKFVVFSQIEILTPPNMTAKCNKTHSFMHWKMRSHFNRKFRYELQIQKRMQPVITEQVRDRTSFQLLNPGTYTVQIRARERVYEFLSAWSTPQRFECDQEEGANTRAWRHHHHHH
The assay can be described thus: SPR, Biacore X100; antibody captured by anti-human IgG (Fc), hCD123-SP1-his as analyte, 1:1 model. On the procedure:
The affinity of anti-CD123 antibodies was determined by surface plasmon resonance using Biacore X100. Related reagents and consumables such as Amino Conjugation Kit (BR-1000-50), Human Antibody Capture Kit (BR-1008-39), CM5 Chip (BR100012) and 10×HBS-EP (BR100669) buffer with pH 7.4 were all purchased from GE healthcare. According to the instructions in the kits, 1-Ethyl-3-(3-dimethylaminopropyl) carbodiimide hydrochloride (EDC) and N-Hydroxysuccinimide (NHS) was used to activate the surface of the carboxylated CM5 chip, and the anti-human IgG (Fc) antibody (capture antibody) was diluted to 25 μg/mL with 10 mM, pH5.0 sodium acetate, followed by an injection with a flow rate at 10 μL/min to achieve a coupling volume of approximately 10,000 response units (RU). Following the injection of the capture antibody, 1 M ethanolamine was injected to block unreacted groups. […] The chip surface was regenerated by injecting 3M MgCl₂ solution at 10 μL/min for 30 s. Association rates (Kₒₙ) and dissociation rates (Koff) were calculated from association and dissociation sensorgrams fitted by a 1:1 binding model using Biacore X100 evaluation software version 2.0.1. The dissociation equilibrium constant (KD) was calculated as the ratio Koff/Kₒₙ.

The target in assay [4] is T4, extracellular region of cynomolgus monkey CD3E with C-terminal His tag (mfCD3E-his) (cynomolgus monkey (Macaca fascicularis), UniProt Q95LI5 22-117).
T4 construct: Recombinant, expressed in HEK293 cells
T4 sequence: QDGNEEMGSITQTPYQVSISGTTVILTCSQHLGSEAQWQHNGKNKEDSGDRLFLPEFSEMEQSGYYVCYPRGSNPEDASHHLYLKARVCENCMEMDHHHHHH
Nature of the assay: SPR, Biacore X100; antibody captured by anti-human IgG (Fc), mfCD3E-his as analyte, 1:1 model. The method, then:
as §1
(Surface plasmon resonance follows binding to a sensor surface in real time, without labels.)

B1: bispecific antibody CD3E×CD123 (bispecific antibody, human IgG1, kappa)
heavy 1: EVQLVESGGGLVQPGGSLRLSCAASGFTFSNAWMHWVRQAPGKGLEWVGQIKDKSNNYATYYADAVKGRFTISRDDSKNSLYLQMNSLKTEDTAVYYCRYVHYGVRFFYTMDVWGQGTTVTVSSASTKGPSVFPLAPSSKSTSGGTAALGCLVKDYFPEPVTVSWNSGALTSGVHTFPAVLQSSGLYSLSSVVTVPSSSLGTQTYICNVNHKPSNTKVDKRVEPKSCDKTHTCPPCPAPEFEGGPSVFLFPPKPKDTLMISRTPEVTCVVVDVSHEDPEVKFNWYVDGVEVHNAKTKPREEQYNSTYRVVSVLTVLHQDWLNGKEYKCKVSNKALPASIEKTISKAKGQPREPQVYTLPPCREEMTKNQVSLWCLVKGFYPSDIAVEWESNGQPENNYKTTPPVLDSDGSFFLYSKLTVDKSRWQQGNVFSCSVMHEALHNHYTQKSLSLSPGK
heavy 2: QVQLVQSGAEVKKPGASVKVSCKASGYTFTSYDVSWVRQAPGQRLEWMGWVYPVDGSTKFNEKFKGRVTLTADRSSSTAYMELSSLRSEDTAVYYCARLTYGDFGDAMDYWGQGTLVTVSSASTKGPSVFPLAPSSKSTSGGTAALGCLVKDYFPEPVTVSWNSGALTSGVHTFPAVLQSSGLYSLSSVVTVPSSSLGTQTYICNVNHKPSNTKVDKRVEPKSCDKTHTCPPCPAPEFEGGPSVFLFPPKPKDTLMISRTPEVTCVVVDVSHEDPEVKFNWYVDGVEVHNAKTKPREEQYNSTYRVVSVLTVLHQDWLNGKEYKCKVSNKALPASIEKTISKAKGQPREPQVCTLPPSREEMTKNQVSLSCAVKGFYPSDIAVEWESNGQPENNYKTTPPVLDSDGSFFLVSKLTVDKSRWQQGNVFSCSVMHEALHNHYTQKSLSLSPGK
light: DIVMTQTPLSLSVTPGQPASISCKSSQSLVHSNDNTYLTWYLQKPGQSPQLLIYKVSNRFSGVPDRFSGSGSGTDFTLKISRVEAEDVGVYYCGQGTQYPFTFGQGTKLEIKRTVAAPSVFIFPPSDEQLKSGTASVVCLLNNFYPREAKVQWKVDNALQSGNSQESVTEQDSKDSTYSLSSTLTLSKADYEKHKVYACEVTHQGLSSPVTKSFNRGEC
notes: also called CD3×CD123 BsAb; CD3E×CD123 BsAb
Regarding B1, the dissociation constant (Kd) in assay [1] is 7.08 nM; in assay [2], 14.1 nM; in assay [3] it was 0.178 nM; in assay [4], 11.5 nM. The koff in assay [2] was 0.000797 s⁻¹; in assay [3], 4.02e-05 s⁻¹; in assay [4], 0.00157 s⁻¹. Also, the on-rate constant (kon) in assay [2] was 56500 M⁻¹ s⁻¹; in assay [3], 225000 M⁻¹ s⁻¹; in assay [4], 137000 M⁻¹ s⁻¹.

The term Kd denotes the equilibrium constant for the complex coming apart. One may read the koff as a measure of how fast the partners let go of each other. The term kon denotes the second-order rate constant of association.
